B1: recombinant FAT domain of ATM (rFAT), his-tagged (domain or fragment)
chain: EVAKVAQSCAAHFTALLYAEIYADKKSMDDQEKRSLAFEEGSQSTTISSLSEKSKEETGISLQDLLLEIYRSIGEPDSLYGCGGGKMLQPITRLRTYEHEAMWGKALVTYDLETAIPSSTRQAGIIQALQNLGLCHILSVYLKGLDYENKDWCPELEELHYQAAWRNMQWDHCTSVSKEVEGTSYHESLYNALQSLRDREFSTFYESLKYARVKEVEEMCKRSLESVYSLYPTLSRLQAIGELESIGELFSRSVTHRQLSEVYIKWQKHSQLLKDSDFSFQEPIMALRTVILEILMEKEMDNSQRECIKDILTKHLVELSILARTFKNTQLPERAIFQIKQYNSVSCGVSEWQLEEAQVFWAKKEQSLALSILKQMIKKLDASCAANNPSLKLTYTECLRVCGNWLAETCLENPAVIMQTYLEKAVEVAGNYDGESSDELRNGKMKAFLSLARFSDTQYQRIENYMKSSEFENKQALLKRAKEEVGLLREHKIQTNRYTVKVQRELELDELALRALKEDRKRFLCKAVENYINCLLSGEEHDMWVFRLCSLWLENSGVSEVNGMMKRDGMKIPTYKFLPLMYQLAARMGTKMMGGLGFHEVLNNLISRISMDHPHHTLFIILALANA
B2: recombinant PI3K domain of ATM (rPI3K), his-tagged (domain or fragment)
chain: FKAEFRLAGGVNLPKIIDCVGSDGKERRQLVKGRDDLRQDAVMQQVFQMCNTLLQRNTETRKRKLTICTYKVVPLSQRSGVLEWCTGTVPIGEFLVNNEDGAHKRYRPNDFSAFQCQKKMMEVQKKSFEEKYEVFMDVCQNFQPVFRYFCMEKFLDPAIWFEKRLAYTRSVATSSIVGYILGLGDRHVQNILINEQSAELVHIDLGVAFEQGKILPTPETVPFRLTRDIVDGMGITGVEGVFRRCCEKTMEVMRNSQETLLTIVEVLLYDPLFDWTMNPLKALYLQQRPEDETELHPTLNADDQECKRNLSDI

Biological target: T1, recombinant MDM2 protein (UniProt Q00987 1-491)
T1 construct: MDM2 E3 ubiquitin ligase, recombinant version used in sandwich ELISA; Source, limits and tags of the recombinant MDM2 may stand in Supplementary Methods; source: recombinant
T1 sequence (Q00987 whole entry): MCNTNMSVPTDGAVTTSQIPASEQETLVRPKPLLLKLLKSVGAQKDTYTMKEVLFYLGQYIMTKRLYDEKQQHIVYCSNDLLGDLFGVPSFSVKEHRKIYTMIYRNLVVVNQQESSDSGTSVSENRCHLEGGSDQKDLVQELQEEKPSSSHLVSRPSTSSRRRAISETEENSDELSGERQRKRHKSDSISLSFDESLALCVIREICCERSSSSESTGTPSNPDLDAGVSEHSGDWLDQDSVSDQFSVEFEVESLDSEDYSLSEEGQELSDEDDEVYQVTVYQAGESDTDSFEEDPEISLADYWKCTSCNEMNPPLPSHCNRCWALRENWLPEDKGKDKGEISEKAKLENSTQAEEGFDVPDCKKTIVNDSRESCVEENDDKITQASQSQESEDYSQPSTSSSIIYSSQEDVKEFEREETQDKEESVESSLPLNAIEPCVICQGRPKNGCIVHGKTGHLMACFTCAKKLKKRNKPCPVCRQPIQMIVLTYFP
Experiment: ELISA; protein-protein sandwich ELISA on 96-well plates with his-tagged recombinant FAT or PI3K domain and recombinant MDM2; details in Supplementary Methods

Row | Binder | Kd [nM]
1 | B1 | 30
2 | B2 | 186
